Biological target: WT His-BRCA1(1-500)-BARD1(27-327) heterodimer (UniProt P38398 1-500; Q99728 27-327)
Assay: pull-down

Sequence of WT His-BRCA1(1-500)-BARD1(27-327) heterodimer (P38398 1-500, chain 1 of 2): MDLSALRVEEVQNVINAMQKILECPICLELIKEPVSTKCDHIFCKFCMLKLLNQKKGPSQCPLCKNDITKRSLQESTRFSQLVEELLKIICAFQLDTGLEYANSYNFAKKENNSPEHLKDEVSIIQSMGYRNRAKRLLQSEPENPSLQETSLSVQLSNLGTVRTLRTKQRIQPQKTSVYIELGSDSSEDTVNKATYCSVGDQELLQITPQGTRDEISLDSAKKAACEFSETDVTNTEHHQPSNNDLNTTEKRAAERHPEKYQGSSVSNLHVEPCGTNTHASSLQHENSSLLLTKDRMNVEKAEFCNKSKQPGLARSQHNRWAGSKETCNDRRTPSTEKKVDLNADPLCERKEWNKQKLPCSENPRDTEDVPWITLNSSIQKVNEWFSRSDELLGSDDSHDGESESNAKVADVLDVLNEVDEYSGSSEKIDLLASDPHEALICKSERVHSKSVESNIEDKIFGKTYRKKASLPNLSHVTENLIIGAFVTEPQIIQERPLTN
Sequence of WT His-BRCA1(1-500)-BARD1(27-327) heterodimer (Q99728 27-327, chain 2 of 2): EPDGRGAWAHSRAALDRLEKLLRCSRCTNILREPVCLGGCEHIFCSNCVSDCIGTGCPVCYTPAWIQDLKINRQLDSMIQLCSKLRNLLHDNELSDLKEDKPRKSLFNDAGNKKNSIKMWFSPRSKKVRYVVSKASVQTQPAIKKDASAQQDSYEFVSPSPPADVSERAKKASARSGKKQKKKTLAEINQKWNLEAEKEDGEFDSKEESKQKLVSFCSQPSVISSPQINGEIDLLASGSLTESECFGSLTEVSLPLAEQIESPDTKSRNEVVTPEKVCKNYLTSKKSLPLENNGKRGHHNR

B1: Human recombinant RAD51 (Abcam) (natural protein)
chain: MAMQMQLEANADTSVEEESFGPQPISRLEQCGINANDVKKLEEAGFHTVEAVAYAPKKELINIKGISEAKADKILAEAAKLVPMGFTTATEFHQRRSEIIQITTGSKELDKLLQGGIETGSITEMFGEFRTGKTQICHTLAVTCQLPIDRGGGEGKAMYIDTEGTFRPERLLAVAERYGLSGSDVLDNVAYARAFNTDHQTQLLYQASAMMVESRYALLIVDSATALYRTDYSGRGELSARQMHLARFLRMLLRLADEFGVAVVITNQVVAQVDGAAMFAADPKKPIGGNIIAHASTTRLYLRKGRGETRICKIYDSPCLPEAEAMFAINADGVGDAKD
B1: binds.

From paper doi:10.1101/478511 (bioRxiv, 2018)
